This is an account of results in the supplement of paper PMC12042874.

± gives the uncertainty stated by the source.

This data set can be described thus: amyloid nucleation score (Sup35N fusion, yeast selection) (log enrichment); library NNK2; higher = more nucleation; inactive = no reads after selection. In a few lines:
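DiMSum was used to calculate nucleation scores as log enrichment of output over input reads, centred on the mode score of non-aggregating sequences. Sequences with fewer than 100 input reads were not scored. Input and output came from Illumina sequencing of plasmid inserts in psi-negative yeast expressing peptides of 20 random codons fused to Sup35N, induced 24 hours with 100 μM copper sulfate and then grown 7 days at 30°C on medium lacking adenine and uracil.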
SYYQCCSG gave an amyloid nucleation score of 3.15 ± 0.14.

Take TALFGISMVCSGRG: the amyloid nucleation score was -0.583 ± 1.1.

In turn, TAMEVPHRIWLR returned an amyloid nucleation score of -0.305 ± 1.1.

TAQILLSTGSVLHLMLGGSP registered an amyloid nucleation score of 3.02 ± 0.088.

The substance TAWSMNVHVSANVSTCRPLR returned an amyloid nucleation score of 1.87 ± 0.2.

Substance TCARSVYDNLSLINLTRG had an amyloid nucleation score of 1.73 ± 0.1.

Consider TCDWLKAFIAWF, for which the amyloid nucleation score worked out at 1.53 ± 0.3.

TCGDGPATYTQT showed an amyloid nucleation score of 0.132 ± 0.38.

On to TCGLSIVDYWSLR, for which the amyloid nucleation score was -0.99 ± 1.1.

The substance TCGTVSNSRASRQFESSSNA returned an amyloid nucleation score of 0.633 ± 0.18.

Substance TCIFVNDFSMSGWDCMLFY showed an amyloid nucleation score of 4.4 ± 0.062.

The substance TCILMLCQECVCTF had an amyloid nucleation score of 9.809 ± 0.051.

Regarding TCLGSRWLT, the amyloid nucleation score was 0.653 ± 0.33.

For the substance TCLYP, the amyloid nucleation score is -0.707 ± 0.55.

TCTQPFLVGCVERSLYES returned an amyloid nucleation score of -0.317 ± 0.28.

The substance TCYRSDRPIRRRVAFALTEG displayed an amyloid nucleation score of 1.04 ± 0.41.

Substance TCYTKPLNEYYE yielded an amyloid nucleation score of 0.011 ± 0.56.

Take TDFFCLTIFFNVEHVISKCI: the amyloid nucleation score came to 2.14 ± 0.17.

With TDISQEGPVNIL, the amyloid nucleation score entry is “inactive”.

For TDKKACNLNDANVS, the amyloid nucleation score is -0.014 ± 0.76.

In turn, TDLASKAS had an amyloid nucleation score of -0.194 ± 0.48.

As to TDLTQF, the amyloid nucleation score was -0.375 ± 1.1.

Consider TDLWFRLATRCNDNDAFFL, for which the amyloid nucleation score is -0.981 ± 1.1.

On to TDSAFLCHIAWTPFTVH, for which the amyloid nucleation score was determined as 0.866 ± 0.48.

In turn, TEAFKGLSLS yielded an amyloid nucleation score of 0.184 ± 0.49.

As to TELVWLPWTRFCFGRNYRG, the amyloid nucleation score is 0.101 ± 0.35.

The substance TFAVFSYLRFIATNSGNIKA registered an amyloid nucleation score of -0.606 ± 0.48.

In the case of TFDWKTSKPYANKPLRFETS, the amyloid nucleation score was determined as 0.284 ± 0.34.

With TFFYCGPRKLFYKI, the amyloid nucleation score was -0.387 ± 1.1.

The substance TFHFQTRLCYLALYDHAIYA had an amyloid nucleation score of -0.242 ± 0.79.

Substance TFIFWGTAELVNNNLGLRC showed an amyloid nucleation score of -0.479 ± 0.48.

TFKILLRCGNNLFGSKAFDM gave an amyloid nucleation score of 3.63 ± 0.05.

On to TFKSNLV, for which the amyloid nucleation score was determined as 0.092 ± 0.17.

TFLSGLCIAACSIMGFNQSS showed an amyloid nucleation score of -1.6 ± 0.78.

Take TFLVLLRVMVWVV: the amyloid nucleation score was 0.648 ± 0.6.

Take TFNACNK: the amyloid nucleation score worked out at 0.349 ± 0.18.

Substance TGFGLMHGLAGKCCLRFFIT gave an amyloid nucleation score of -0.116 ± 0.35.

The substance TGGRF showed an amyloid nucleation score of 0.264 ± 0.8.

The substance TGKYICRW registered an amyloid nucleation score of -0.843 ± 0.38.

TGLCHPIGLPDRFRYIIRSL returned an amyloid nucleation score of -0.789 ± 0.55.

Consider TGLVFVLMCKSCQWFFREML, for which the amyloid nucleation score was -0.948 ± 0.42.

For TGLVVDCLAYRDCSVKQDRA, the amyloid nucleation score is 0.582 ± 0.34.

For TGSVREYCGEVPWRLCDDRV, the amyloid nucleation score stood at 0.244 ± 0.62.

Turning to TGTAVG, the amyloid nucleation score was determined as 3.23 ± 0.073.

TGVLCGSYFFWLF displayed an amyloid nucleation score of 5.15 ± 0.058.

TGVYRWSEMSMVMFFFHVEC displayed an amyloid nucleation score of -0.226 ± 0.63.

Substance TGWCGL yielded an amyloid nucleation score of 5.54 ± 0.066.

Consider TGWNDATRY, for which the amyloid nucleation score was -0.467 ± 0.49.

Substance TGWTFWGGCRWM registered an amyloid nucleation score of 4.57 ± 0.12.

With THCKGIYLSCMTSDFVHSYY, the amyloid nucleation score result was “inactive”.

The substance THLHCCYRETISDP yielded an amyloid nucleation score of 0.175 ± 0.33.

The substance TIATPHCVYDSCGCSVVSSV yielded an amyloid nucleation score of 0.176 ± 0.56.

Consider TIFFRCHWIRGLLVHLMF, for which the amyloid nucleation score entry is “inactive”.

For TIGGEASVPRRMPLYTLQCE, the amyloid nucleation score is 6.03 ± 0.088.

On to TIGPKFLLIIKMRCLWMNEE, for which the amyloid nucleation score is 0.105 ± 1.1.

TIGRSFYELPFYGAILFWMR: the amyloid nucleation score was 1.45 ± 0.21.

The substance TIIRRDSLESQRRHCPMVVV returned an amyloid nucleation score of 0.351 ± 0.64.

TISMEVEYCV gave an amyloid nucleation score of -0.1 ± 1.

In turn, TIYVRQ returned an amyloid nucleation score of -1.4 ± 1.1.

Turning to TKEHYYR, the amyloid nucleation score is 0.048 ± 0.5.

In turn, TKFVWDQNLVSSLINCGQSL yielded an amyloid nucleation score of -0.841 ± 1.1.

TKGFVTGVGGRSLIIVGCGA: the amyloid nucleation score was determined as 0.664 ± 0.51.

As for TKICWGSCRHLDLAFFLFLY, the amyloid nucleation score entry was “inactive”.

TKRMLERVTFFVHWCWLWSV returned an amyloid nucleation score of 1.09 ± 0.15.

Substance TLDGLDS returned an amyloid nucleation score of -0.283 ± 0.25.

In turn, TLDVIGIYLAGVGRFDGKSA registered an amyloid nucleation score of 0.261 ± 0.49.

TLFCIVMYCTKVETNFLVLH came in with an amyloid nucleation score of 6.45 ± 0.085.

Take TLFNMMIYSL: the amyloid nucleation score came out at 1.09 ± 0.54.

TLFSSRRYSVGERSQVTCLI: the amyloid nucleation score was -0.492 ± 0.55.

Consider TLGNKFLKSWYMGASKTMCV, for which the amyloid nucleation score was -1.78 ± 0.75.

TLIGNDDLVVTCTYSYDPTL yielded an amyloid nucleation score of -0.145 ± 1.1.

On to TLKACKNFYGGIFCNHGSES, for which the amyloid nucleation score is -0.72 ± 1.1.

With TLNNCRPFCLLELANLINRD, the amyloid nucleation score is 3.4 ± 0.058.

The substance TLNSRWVNNSPVEM yielded an amyloid nucleation score of -0.12 ± 1.

In turn, TLPCFRVFYVTFQYSNHLLS displayed an amyloid nucleation score of 8.55 ± 0.042.

TLPSPIRYRVNTNNRM registered an amyloid nucleation score of 0.397 ± 0.54.

In the case of TLSKYCEDKFEWFCIAVICR, the amyloid nucleation score stood at 6.95 ± 0.04.

For TLTLSTIHWNLY, the amyloid nucleation score is 6.13 ± 0.066.

Regarding TLTYFLNSSWD, the amyloid nucleation score was found to be 1.93 ± 0.25.

For TMGKCITIGPAFIHNT, the amyloid nucleation score was determined as 1.51 ± 0.32.

Turning to TMGYDSSTVTVFGGSMFLRL, the amyloid nucleation score was 2.56 ± 0.2.

As to TMILVCRRAFKCYLTQDWSD, the amyloid nucleation score was found to be 0.538 ± 0.3.

TMIYMHRLLLNVVDVCCHWF gave an amyloid nucleation score of 0.261 ± 0.74.

For the substance TMKHPDMS, the amyloid nucleation score is -0.152 ± 0.55.

Regarding TMKLLQRYYLSFFPI, the amyloid nucleation score was -1.72 ± 0.64.

For the substance TMLYKWKVGNTFSHVLCLLL, the amyloid nucleation score is -0.14 ± 1.

In turn, TMPTY returned an amyloid nucleation score of 0.709 ± 0.66.

Take TMVALKI: the amyloid nucleation score is -0.15 ± 0.44.

For the substance TMYRYASFKADLSDFKAAYE, the amyloid nucleation score is 0.524 ± 0.81.

Turning to TMYYVTGGV, the amyloid nucleation score was 2.44 ± 0.056.

With TNDYSFWVLSHTANQPSLME, the amyloid nucleation score entry was “inactive”.

TNFFLNKRAGYNWLLVFEVI: the amyloid nucleation score was -0.886 ± 0.48.

TNLQSVRYVAHTF registered an amyloid nucleation score of 3.96 ± 0.068.

For the substance TNVGCRVLCTLRSVTPDVVR, the amyloid nucleation score worked out at 0.646 ± 0.62.

Consider TNWQGQRIRYAKDLGGPCGL, for which the amyloid nucleation score was found to be 0.506 ± 0.35.

Consider TPDLSLLFIIRRCIFSGTPY, for which the amyloid nucleation score result is “inactive”.

The substance TPHGIYEHLPQEY registered an amyloid nucleation score of -0.273 ± 0.49.

With TPILFVT, the amyloid nucleation score is -0.746 ± 0.56.

In turn, TPPTHWSFFMIWARCEKLGG displayed an amyloid nucleation score of -1.01 ± 0.64.

In turn, TQLLQHGGGFRSRISSRLGR displayed an amyloid nucleation score of 1.21 ± 0.41.

In the case of TQRHATENLKFTTWAYKSRE, the amyloid nucleation score was 0.994 ± 0.16.

Turning to TQSNALPVGPYSFTFFGRGY, the amyloid nucleation score was found to be 0.54 ± 0.8.

Substance TRFGPPVHSKLCPPAMWPGW returned an amyloid nucleation score of 0.691 ± 0.23.

Turning to TRISMRLWFSGRELIEALKF, the amyloid nucleation score is -0.29 ± 0.65.

In turn, TRLMCMFERYQACFTDLSDI yielded an amyloid nucleation score of -0.698 ± 0.54.

The substance TRMDNAY registered an amyloid nucleation score of -0.132 ± 0.65.

Substance TRNYLFTTSNWYVSSKMSNS had an amyloid nucleation score of -0.632 ± 0.56.

For TRWARYALNVIEHWQLSWVK, the amyloid nucleation score amounted to 0.145 ± 0.63.

In turn, TRWSANYPRCWPTMRRCLSL registered an amyloid nucleation score of 0.858 ± 0.51.

For the substance TSCFLLIQGIFGGLGITGMP, the amyloid nucleation score is 2.97 ± 0.099.

TSFLNLIFIYLALKRWLILF displayed an amyloid nucleation score of 4.74 ± 0.06.

Regarding TSFQVFINYVSL, the amyloid nucleation score worked out at 7.605 ± 0.046.

In the case of TSHSFVLVY, the amyloid nucleation score was -0.705 ± 0.33.

Substance TSIIVTMLDPYWVISNSCAH showed an amyloid nucleation score of 5.701 ± 0.038.

With TSIYLVLGYIFESATRLF, the amyloid nucleation score turned out to be 0.144 ± 0.79.

For TSLDRRICKRGTVIVEIPHA, the amyloid nucleation score is 5.28 ± 0.055.

Regarding TSNSII, the amyloid nucleation score is -0.876 ± 0.49.

TSPRCYRFMIQSMYGLRTRV: the amyloid nucleation score turned out to be 0.883 ± 0.17.

The substance TSPSKLFRDLFYHPRSKPVA showed an amyloid nucleation score of 0.708 ± 0.41.

The substance TSSSYTWLIKSMRVFTNYNV yielded an amyloid nucleation score of -1.32 ± 0.38.

In turn, TSSWRVWAYQSAAANMHTDL showed an amyloid nucleation score of 5.01 ± 0.06.

For TSVGYMMLSNW, the amyloid nucleation score is 4.88 ± 0.095.

In turn, TSVQFCLLICLFRSTGNCAR had an amyloid nucleation score of 2.1 ± 0.1.

TSVVFWWGKGGKVGEPNEAG showed an amyloid nucleation score of 0.147 ± 1.1.

Consider TSWNWSFFWCTYYLFTQVRG, for which the amyloid nucleation score was -0.772 ± 0.42.

TSWVYDEYVVCLPSWASYVL gave an amyloid nucleation score of -0.509 ± 1.1.

TSYTWDHCGGHIKSRYSGVG: the amyloid nucleation score entry was “inactive”.

In turn, TTDCG registered an amyloid nucleation score of -0.712 ± 0.33.

With TTEWFHESFREQFVMESFVS, the amyloid nucleation score was -1.26 ± 0.41.

Substance TTGHQLNDCYLKGCFSEWIL displayed an amyloid nucleation score of -0.073 ± 1.

In turn, TTLYGGAFIGIGYVGRHTEN returned an amyloid nucleation score of 3.21 ± 0.15.

The substance TTMCMGLLTNWWAGRCL had an amyloid nucleation score of 2.76 ± 0.1.

As for TVCKPIRWLNNEFCDYVSNT, the amyloid nucleation score is -0.644 ± 0.31.

On to TVCSIMASFQYRDSRRQRSG, for which the amyloid nucleation score stood at 4.02 ± 0.078.

TVELLGILAHCSFCS yielded an amyloid nucleation score of 8.247 ± 0.054.

With TVHRCD, the amyloid nucleation score came to 0.627 ± 0.57.

Turning to TVMLFVSLQRCH, the amyloid nucleation score entry is “inactive”.

Regarding TVRLFFLG, the amyloid nucleation score came out at 3.98 ± 0.11.

TVSMLLGRRCVRFRVMVRVG gave an amyloid nucleation score of 4.79 ± 0.05.

For TVSYCVAYSMQQMLS, the amyloid nucleation score was -0.072 ± 1.1.

TVWDLPLVAFCKHGTDHLLS gave an amyloid nucleation score of -0.121 ± 1.1.

In the case of TWGFYAVTCLQLLPRFVKHV, the amyloid nucleation score is -0.374 ± 0.33.
